Laboratory results published in the MegaScale stability set (Tsuboyama et al. 2023).

B1: r4_43_TrROS_Hall (parent)
chain: DLVTIKVPLENLEEIKKAAEKAGFKIVSISYDKENKEVTIVIEKKK

Variants of: B1
Experiment: folding stability dG (cDNA display proteolysis); higher = more stable
Conditions: PBS, room temperature

Folding stability dG [kcal/mol], by site and new letter:
G23: Y 3.44
F24: A 3.19; D 2.47; E 2.85; G 2.74; H 2.73; I 2.52; K 2.51; L 2.8; M 2.55; N 2.56; P 1.47; Q 2.5; R 2.77; S 2.69; T 2.88; V 2.74; W 3.68; Y 3.53
K25: A 3.12; C 3.06; D 2.73; E 3.04; F 3.9; G 2.89; H 3.2; I 3.56; L 3.05; M 3.63; N 3.34; P 2.05; Q 3.29; R 4.04; S 3.58; T 3.58; V 3.08; W 3.57; Y 3.88
I26: A 2.13; C 3; D 1.25; E 1.75; F 3.31; G 0.98; H 1.53; K 1.31; L 3.59; M 3.31; N 1.35; P 1.96; Q 2.02; R 1.21; S 1.81; T 2.76; V 3.41; W 3.12; Y 2.52
V27: A 3.48; C 3.64; D 2.75; E 2.88; F 3.87; G 2.59; H 3.96; I 3.57; K 3.96; L 3.51; M 3.99; N 3.24; P 1.89; Q 3.48; R 3.96; S 3.35; T 3.77; W 4.34; Y 4.35
S28: A 3.71; C 3.69; D 3.02; E 3.18; F 3.77; G 3.53; I 3.39; K 3.52; L 3.18; M 3.28; N 3.42; P 2.51; Q 3.48; R 3.88; T 3.48; V 3.22; W 3.88; Y 3.88
I29: A 3.16; D 1.72; E 3.18; F 4.07; G 1.61; H 2.76; K 2.44; L 3.85; M 3.79; N 1.97; Q 3.28; R 2.47; S 2.98; T 3.56; V 3.67; W 3.93; Y 4.25
S30: A 3.4; C 3.53; D 3.5; E 3.4; F 3.9; G 3.22; H 3.68; I 3.66; K 3.59; L 3.74; M 3.49; N 3.79; P 0.669; Q 3.47; R 3.62; T 3.66; V 3.96; W 3.71; Y 3.83
Y31: A 3.06; C 3.37; D 2.58; E 3.29; F 3.3; G 2.76; H 3.41; I 3.27; K 3.34; L 3.12; M 3.19; N 2.95; P 2.97; Q 3.23; R 3.39; S 2.83; T 3.15; V 3.47; W 3.55
D32: A 3.54; C 3.85; E 3.62; F 3.67; G 3.82; H 3.67; I 3.39; K 3.04; L 3.21; M 3.48; N 4.06; P 2.77; Q 3.56; R 2.93; S 4.21; T 3.81; V 3.33; W 3.62; Y 3.65
K33: A 3.49; C 3.44; D 3.11; E 3.43; F 3.61; G 3.28; H 3.73; I 3.85; L 3.8; M 3.72; N 3.74; P 2.94; Q 3.83; R 3.93; S 3.5; T 3.41; V 3.73; W 3.76; Y 3.42
E34: A 3.48; C 3.63; D 3.75; F 3.67; G 3.8; H 3.92; I 3.88; K 3.83; L 4.04; M 3.74; N 3.77; P 3.68; Q 3.89; R 3.84; S 3.86; T 3.77; V 3.72; W 3.96; Y 3.81
N35: A 3.24; D 3.73; E 3.47; F 3.5; G 3.61; H 3.54; I 3.52; K 3.17; L 3.47; M 3.93; P 3.2; Q 3.54; R 3.98; S 3.55; T 3.4; V 3.17; W 3.75; Y 3.72
K36: A 3.57; C 3.19; D 3.28; E 3.22; F 3.48; G 3.64; H 3.4; I 3.54; L 3.71; M 3.22; N 3.51; P 3.39; Q 3.48; R 3.88; S 3.46; T 3.48; V 3.32; W 3.66; Y 3.61
E37: A 3.75; C 3.8; D 3.49; F 3.93; G 3.72; H 3.86; I 3.85; K 3.45; L 3.62; M 3.64; N 3.62; P 2.62; Q 3.59; R 3.53; S 3.81; T 3.88; V 4.14; W 3.92; Y 3.9
V38: A 3.79; C 3.57; D 0.46; E 0.699; F 3.57; G 3.18; H 2.85; I 3.66; K 1.02; L 3.71; M 3.43; N 2.11; P 1.79; Q 1.74; R 1.31; S 3.12; T 3.23; W 4.33; Y 4.2
T39: A 3.4; C 3.2; D 3.21; E 3.22; F 3.69; G 2.85; H 3.47; I 3.66; K 3.42; L 3.36; M 3.52; N 3.14; P -0.044; Q 3.36; R 3.57; S 3.54; V 3.56; W 4.01; Y 3.83
I40: A 2.62; C 2.81; F 3.93; G 0.285; H -0.04; L 3.98; M 3.77; N -0.494; Q 0.343; S 0.271; T 1.73; V 3.81; W 1.82; Y 2.75
V41: A 3.49; C 3.33; D 2.77; E 3.48; F 3.76; G 3.4; H 3.26; I 3.64; K 3.47; L 3.91; M 3.48; N 3.34; Q 3.5; R 3.47; S 3.51; T 3.42; W 4.13; Y 3.71
I42: A 3.53; C 3.24
